Assay results taken from patent publication US20190106460A1 (published 2019).
Non-standard residues stand in square brackets, D forms with d. Groups on a side chain read outwards from the residue. *: point of attachment. Chol = cholesteryl, CC(C)CCC[C@@H](C)[C@H]1CC[C@H]2[C@@H]3CC=C4C[C@@H](*)CC[C@]4(C)[C@H]3CC[C@]12C; Benzenesulfonyl(4-tBu) = CC(C)(C)c1ccc(S(=O)(=O)*)cc1; 2,4,6‑trimethylbenzoyl = Cc1cc(C)c(C(=O)*)c(C)c1; Benzenesulfonyl(4-OMe) = COc1ccc(S(=O)(=O)*)cc1; 4‑(Br)‑2‑(Me)PhSO2 = Cc1cc(Br)ccc1S(=O)(=O)*; 4‑(i-Pr)PhSO2 = CC(C)c1ccc(S(=O)(=O)*)cc1; Benzoyl(4-tBu) = CC(C)(C)c1ccc(C(=O)*)cc1; 4‑(n-Pr)PhSO2 = CCCc1ccc(S(=O)(=O)*)cc1; Phe(3-F) = N[C@@H](Cc1cccc(F)c1)C(=O)O; Benzoyl(4-Br) = O=C(c1ccc(Br)cc1)*; 2Naphthoyl = O=C(c1ccc2ccccc2c1)*; Benzoyl(4-Me) = Cc1ccc(C(=O)*)cc1; Brosyl = O=S(=O)(c1ccc(Br)cc1)*; Ahx = NCCCCCC(=O)O

Target: T1, Beta Transducin repeat-containing protein (βTrCP), tag cleaved and complexed with Skp1 (UniProt Q9Y297 175-605; P63208 1-163)
T1 construct: the FP protocol says that Ki is determined from FP dose-response curves; also called βTrCP/Skp1
T1 sequence (Q9Y297 175-605, chain 1 of 2): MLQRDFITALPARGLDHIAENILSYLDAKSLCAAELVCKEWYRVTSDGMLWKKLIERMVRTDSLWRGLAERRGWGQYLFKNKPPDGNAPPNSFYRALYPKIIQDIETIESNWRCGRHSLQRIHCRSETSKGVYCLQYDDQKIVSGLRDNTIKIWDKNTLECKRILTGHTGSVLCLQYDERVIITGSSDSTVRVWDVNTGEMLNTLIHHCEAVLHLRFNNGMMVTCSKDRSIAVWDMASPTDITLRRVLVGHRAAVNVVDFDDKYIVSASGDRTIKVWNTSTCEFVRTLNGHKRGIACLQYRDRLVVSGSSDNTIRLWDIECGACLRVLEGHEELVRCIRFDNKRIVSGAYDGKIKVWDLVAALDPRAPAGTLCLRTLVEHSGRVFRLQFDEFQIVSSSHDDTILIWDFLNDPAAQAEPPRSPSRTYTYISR
T1 sequence (P63208 whole entry, chain 2 of 2): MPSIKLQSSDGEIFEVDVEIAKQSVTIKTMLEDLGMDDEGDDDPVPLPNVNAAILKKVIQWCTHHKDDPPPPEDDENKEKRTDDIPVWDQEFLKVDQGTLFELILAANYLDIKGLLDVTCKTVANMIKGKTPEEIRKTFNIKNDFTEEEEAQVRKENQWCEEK
Assay: FP competition dose-response, fluorescein-IkB peptide tracer on βTrCP/Skp1 (average Ki; assay not given)

Binder	Ki [nM]
{2,4‑(Cl)2‑PhSO2}-[dD]EG[Phe(3-F)]WE-NH2 (also called UBP048) [2,4-(Cl)2-PhSO2-dEGF(3F)WE-NH2]	27
{4‑Br‑3‑CF3‑PhSO2}-[dD]EG[Phe(3-F)]WE-NH2 (also called UBP046) [4-Br-3-CF3-PhSO2-dEGF(3F)WE-NH2]	14.2
{4‑Br‑2‑CH3‑PhSO2}-[dD]EG[Phe(3-F)]WE-NH2 (also called UBP043) [4-Br-2-CH3-PhSO2-dEGF(3F)WE-NH2]	3.96
{4‑Pr‑PhSO2}-[dD]EG[Phe(3-F)]WE-NH2 (also called UBP041) [4-Pr-PhSO2-dEGF(3F)WE-NH2]	1.77
{4‑OCF3‑PhSO2}-[dD]EG[Phe(3-F)]WE-NH2 (also called UBP045) [4-OCF3-PhSO2-dEGF(3F)WE-NH2]	4.77
{4‑Br‑2‑OCF3‑PhSO2}-[dD]EG[Phe(3-F)]WE-NH2 (also called UBP051) [4-Br-2-OCF3-PhSO2-dEGF(3F)WE-NH2]	110
{4‑i‑Pr‑PhSO2}-[dD]EG[Phe(3-F)]WE-NH2 (also called UBP040) [4-i-Pr-PhSO2-dEGF(3F)WE-NH2]	1.6
{2,4‑(Br)2‑PhSO2}-[dD]EG[Phe(3-F)]WE-NH2 (also called UBP049) [2,4-(Br)2-PhSO2-dEGF(3F)WE-NH2]	45.3
{Benzenesulfonyl(4-OMe)}-[dD]EG[Phe(3-F)]WE[Ahx]K(4‑isopropylphenylsulfonyl)-NH2 (also called UBP072) [4-(MeO)PhSO2-dEGF(3F)WE-Ahx-K(NHSO2-(4-i-Pr)-Ph))-NH2]	12.9
{4‑Cl‑PhSO2}-[dD]EG[Phe(3-F)]WE-NH2 (also called UBP053) [4-Cl-PhSO2-dEGF(3F)WE-NH2]	330
{4‑CF3‑PhSO2}-[dD]EG[Phe(3-F)]WE-NH2 (also called UBP047) [4-CF3-PhSO2-dEGF(3F)WE-NH2]	9.45
{4‑Br‑PhSO2}-[dD]EG[Phe(3-F)]WE-NH2 (also called UBP042) [4-Br-PhSO2-dEGF(3F)WE-NH2]	2.52
{Benzenesulfonyl(4-OMe)}-[dD]EG[Phe(3-F)]WE[Ahx]K(4‑n‑propylphenylsulfonyl)-NH2 (also called UBP074) [4-(MeO)PhSO2-dEGF(3F)WE-Ahx-K(NHSO2-(4-(n-Pr)-Ph)-NH2]	28.6
{4‑I‑PhSO2}-[dD]EG[Phe(3-F)]WE-NH2 (also called UBP052) [4-I-PhSO2-dEGF(3F)WE-NH2]	253
{2‑Naph‑SO2}-[dD]EG[Phe(3-F)]WE-NH2 (also called UBP044) [2-Naph-SO2-dEGF(3F)WE-NH2]	5.81
{Benzenesulfonyl(4-OMe)}-[dD]EG[Phe(3-F)]WE[Ahx]K(phenylsulfonyl)-NH2 (also called UBP073) [4-(MeO)PhSO2-dEGF(3F)WE-Ahx-K(NHSO2Ph)-NH2]	13
{3,5‑(CH3)2‑PhSO2}-[dD]EG[Phe(3-F)]WE-NH2 (also called UBP050) [3,5-(CH3)2-PhSO2-dEGF(3F)WE-NH2]	24.6

Target: T2, βTrCP (tag cleaved and complexed with Skp1) (UniProt Q9Y297 175-605; P63208 1-163)
T2 construct: Protein of the fluorescence polarisation assay, 0.035 µM; also called Beta Transducin repeat-containing protein; βTrCP/Skp1
T2 sequence (Q9Y297 175-605, chain 1 of 2): as the sequence (Q9Y297 175-605, chain 1 of 2) above
T2 sequence (P63208 whole entry, chain 2 of 2): as the sequence (P63208 whole entry, chain 2 of 2) above
Assay: fluorescence polarisation assay; the column head does not say whether IC50 or Ki
Experimental: Assay components (without compound) were premixed in a microcentrifuge tube and incubated for 1 hour to ensure equilibrium was achieved. Each compound was then added to one tube, mixed by vortexing, and then dispensed into 3 wells of a black 384-well plate and incubated for 30 minutes. Fluorescence polarization was then read (excitation 485 nm, emission 530 nm) using an Analyst-AD from Molecular Devices.
Binding of the compounds to βTrCP was assessed using a fluorescence polarisation (FP) binding assay. The FP assay is an in vitro binding assay using a fluorescein-tagged IkB peptide at 10 nM to mimic substrate binding to βTrCP, and was performed as described above.

Binder	FP Assay / [nM]
{4‑(i-Pr)PhSO2}-[dD]EG[Phe(3-F)]WE[Ahx]K(Benzoyl(4-Br))-NH2 (Round II CPP; also called UBP083) [4-(i-Pr)PhSO2-dEGF(3F)WE-Ahx-K(CO((4-Br)Ph))-NH2]	36.5
{4‑(n-Pr)PhSO2}-[dD]EG[Phe(3-F)]WE[Ahx]K(Benzoyl(4-tBu))-NH2 (Round II CPP; also called UBP084) [4-(n-Pr)PhSO2-dEGF(3F)WE-Ahx-K(CO((4-tBu)Ph))-NH2]	174
Brosyl-[dD]EG[Phe(3-F)]WE[Ahx]K(Benzoyl(4-Br))-NH2 (Round II CPP; also called UBP093) [4-(Br)PhSO2-dEGF(3F)WE-Ahx-K(CO((4-Br)Ph))-NH2]	106
{4‑(n-Pr)PhSO2}-[dD]EG[Phe(3-F)]WE[Ahx]K(2,4,6‑trimethylbenzoyl)-NH2 (Round II CPP; also called UBP086) [4-(n-Pr)PhSO2-dEGF(3F)WE-Ahx-K(CO((2,4,6-Me3)Ph))-NH2]	29.4
Brosyl-[dD]EG[Phe(3-F)]WE[Ahx]K(Benzoyl(4-Me))-NH2 (Round II CPP; also called UBP092) [4-(Br)PhSO2-dEGF(3F)WE-Ahx-K(CO((4-Me)Ph))-NH2]	151
{Benzenesulfonyl(4-tBu)}-[dD]EG[Phe(3-F)]WE[Ahx]K(Benzoyl(4-tBu))-NH2 (Round II CPP; also called UBP075) [4-(t-Bu)PhSO2-dEGF(3F)WE-Ahx-K(CO((4-tBu)Ph))-NH2]	87.8
{Benzenesulfonyl(4-OMe)}-[dD]EG[Phe(3-F)]WE[Ahx]K([Ahx-Chol])-NH2 (X stands for Ahx; also called UBP036) [4-(MeO)PhSO2-dEGF(3F)WE-Ahx-K(Ahx-Chol)-NH2]	19.3
{Benzenesulfonyl(4-tBu)}-[dD]EG[Phe(3-F)]WE[Ahx]K(2,4,6‑trimethylbenzoyl)-NH2 (Round II CPP; also called UBP077) [4-(t-Bu)PhSO2-dEGF(3F)WE-Ahx-K(CO((2,4,6-Me3)Ph))-NH2]	40.9
{4‑(Br)‑2‑(Me)PhSO2}-[dD]EG[Phe(3-F)]WE[Ahx]K(2Naphthoyl)-NH2 (Round II CPP; also called UBP095) [4-(Br)-2-(Me)PhSO2-dEGF(3F)WE-Ahx-K(CO(2-Naphth))-NH2]	86.7
{4‑(Br)‑2‑(Me)PhSO2}-[dD]EG[Phe(3-F)]WE[Ahx]K(2,4,6‑trimethylbenzoyl)-NH2 (Round II CPP; also called UBP096) [4-(Br)-2-(Me)PhSO2-dEGF(3F)WE-Ahx-K(CO((2,4,6-Me3)Ph))-NH2]	114
{4‑(i-Pr)PhSO2}-[dD]EG[Phe(3-F)]WE[Ahx]K(Benzoyl(4-tBu))-NH2 (Round II CPP; also called UBP080) [4-(i-Pr)PhSO2-dEGF(3F)WE-Ahx-K(CO((4-tBu)Ph))-NH2]	73
Brosyl-[dD]EG[Phe(3-F)]WE[Ahx]K(2Naphthoyl)-NH2 (Round II CPP; also called UBP090) [4-(Br)PhSO2-dEGF(3F)WE-Ahx-K(CO(2-Naphth))-NH2]	133
{4‑(i-Pr)PhSO2}-[dD]EG[Phe(3-F)]WE[Ahx]K(2,4,6‑trimethylbenzoyl)-NH2 (Round II CPP; also called UBP082) [4-(i-Pr)PhSO2-dEGF(3F)WE-Ahx-K(CO((2,4,6-Me3)Ph))-NH2]	56.1
{4‑(n-Pr)PhSO2}-[dD]EG[Phe(3-F)]WE[Ahx]K(Benzoyl(4-Br))-NH2 (Round II CPP; also called UBP088) [4-(n-Pr)PhSO2-dEGF(3F)WE-Ahx-K(CO((4-Br)Ph))-NH2]	39.6
{Benzenesulfonyl(4-tBu)}-[dD]EG[Phe(3-F)]WE[Ahx]K(Benzoyl(4-Me))-NH2 (Round II CPP; also called UBP078) [4-(t-Bu)PhSO2-dEGF(3F)WE-Ahx-K(CO((4-Me)Ph))-NH2]	40
Brosyl-[dD]EG[Phe(3-F)]WE[Ahx]K(Benzoyl(4-tBu))-NH2 (Round II CPP; also called UBP089) [4-(Br)PhSO2-dEGF(3F)WE-Ahx-K(CO((4-tBu)Ph))-NH2]	305
{4‑(n-Pr)PhSO2}-[dD]EG[Phe(3-F)]WE[Ahx]K(Benzoyl(4-Me))-NH2 (Round II CPP; also called UBP087) [4-(n-Pr)PhSO2-dEGF(3F)WE-Ahx-K(CO((4-Me)Ph))-NH2]	58.3
{4‑(i-Pr)PhSO2}-[dD]EG[Phe(3-F)]WE[Ahx]K(2Naphthoyl)-NH2 (Round II CPP; also called UBP081) [4-(i-Pr)PhSO2-dEGF(3F)WE-Ahx-K(CO(2-Naphth))-NH2]	7.66
{Benzenesulfonyl(4-OMe)}-[dD]EG[Phe(3-F)]WE[Ahx][dK][dK][dK][dK][dK][dK][dK][dK][dK]-NH2 (SMILES COc1ccc(S(=O)(=O)N[C@H](CC(=O)O)C(=O)N[C@@H](CCC(=O)O)C(=O)NCC(=O)N[C@@H](Cc2cccc(F)c2)C(=O)N[C@@H](Cc2c[nH]c3ccccc23)C(=O)N[C@@H](CCC(=O)O)C(=O)NCCCCCC(=O)N[C@H](CCCCN)C(=O)N[C@H](CCCCN)C(=O)N[C@H](CCCCN)C(=O)N[C@H](CCCCN)C(=O)N[C@H](CCCCN)C(=O)N[C@H](CCCCN)C(=O)N[C@H](CCCCN)C(=O)N[C@H](CCCCN)C(=O)N[C@H](CCCCN)C(N)=O)cc1, the sheet gives this poly-lysine compound the code UBP022; it is not the untailed UBP022 (1.m39, 5.m30, 6.m3)) [4-(MeO)PhSO2-dEGF(3F)WE-Ahx-k9-NH2]	548
{Benzenesulfonyl(4-tBu)}-[dD]EG[Phe(3-F)]WE[Ahx]K(2Naphthoyl)-NH2 (Round II CPP; also called UBP076) [4-(t-Bu)PhSO2-dEGF(3F)WE-Ahx-K(CO(2-Naphth))-NH2]	43.4
{Benzenesulfonyl(4-tBu)}-[dD]EG[Phe(3-F)]WE[Ahx]K(Benzoyl(4-Br))-NH2 (Round II CPP; also called UBP079) [4-(t-Bu)PhSO2-dEGF(3F)WE-Ahx-K(CO((4-Br)Ph))-NH2]	40.8
Brosyl-[dD]EG[Phe(3-F)]WE[Ahx]K(2,4,6‑trimethylbenzoyl)-NH2 (Round II CPP; also called UBP091) [4-(Br)PhSO2-dEGF(3F)WE-Ahx-K(CO((2,4,6-Me3)Ph))-NH2]	88.3
{4‑(Br)‑2‑(Me)PhSO2}-[dD]EG[Phe(3-F)]WE[Ahx]K(Benzoyl(4-Me))-NH2 (Round II CPP; also called UBP097) [4-(Br)-2-(Me)PhSO2-dEGF(3F)WE-Ahx-K(CO((4-Me)Ph))-NH2]	114
{4‑(n-Pr)PhSO2}-[dD]EG[Phe(3-F)]WE[Ahx]K(2Naphthoyl)-NH2 (Round II CPP; also called UBP085) [4-(n-Pr)PhSO2-dEGF(3F)WE-Ahx-K(CO(2-Naphth))-NH2]	136
{4‑(Br)‑2‑(Me)PhSO2}-[dD]EG[Phe(3-F)]WE[Ahx]K(Benzoyl(4-tBu))-NH2 (Round II CPP; also called UBP094) [4-(Br)-2-(Me)PhSO2-dEGF(3F)WE-Ahx-K(CO((4-tBu)Ph))-NH2]	142
